# Test results as given in IntAct's records for PubMed 21642537.
# B1: Polycystin-2 (Homo sapiens), Q13563-1 (parent)
# chain: MVNSSRVQPQQPGDAKRPPAPRAPDPGRLMAGCAAVGASLAAPGGLCEQRGLEIEMQRIRQAAARDPPAGAAASPSPPLSSCSRQAWSRDNPGFEAEEEEEEVEGEEGGMVVEMDVEWRPGSRRSAASSAVSSVGARSRGLGGYHGAGHPSGRRRRREDQGPPCPSPVGGGDPLHRHLPLEGQPPRVAWAERLVRGLRGLWGTRLMEESSTNREKYLKSVLRELVTYLLFLIVLCILTYGMMSSNVYYYTRMMSQLFLDTPVSKTEKTNFKTLSSMEDFWKFTEGSLLDGLYWKMQPSNQTEADNRSFIFYENLLLGVPRIRQLRVRNGSCSIPQDLRDEIKECYDVYSVSSEDRAPFGPRNGTAWIYTSEKDLNGSSHWGIIATYSGAGYYLDLSRTREETAAQVASLKKNVWLDRGTRATFIDFSVYNANINLFCVVRLLVEFPATGGVIPSWQFQPLKLIRYVTTFDFFLAACEIIFCFFIFYYVVEEILEIRIHKLHYFRSFWNCLDVVIVVLSVVAIGINIYRTSNVEVLLQFLEDQNTFPNFEHLAYWQIQFNNIAAVTVFFVWIKLFKFINFNRTMSQLSTTMSRCAKDLFGFAIMFFIIFLAYAQLAYLVFGTQVDDFSTFQECIFTQFRIILGDINFAEIEEANRVLGPIYFTTFVFFMFFILLNMFLAIINDTYSEVKSDLAQQKAEMELSDLIRKGYHKALVKLKLKKNTVDDISESLRQGGGKLNFDELRQDLKGKGHTDAEIEAIFTKYDQDGDQELTEHEHQQMRDDLEKEREDLDLDHSSLPRPMSSRSFPRSLDDSEEDDDEDSGHSSRRRGSISSGVSYEEFQVLVRRVDRMEHSIGSIVSKIDAVIVKLEIMERAKLKRREVLGRLLDGVAEDERLGRDSEIHREQMERLVREELERWESDDAASQISHGLGTPVGLNGQPRPRSSRPSSSQSTEGMEGAGGNGSSNVHV
# Variants of: B1
# Conditions: with PKD1, P98161-3
# Chain of PKD1, P98161-3 (P98161 whole entry, looked up): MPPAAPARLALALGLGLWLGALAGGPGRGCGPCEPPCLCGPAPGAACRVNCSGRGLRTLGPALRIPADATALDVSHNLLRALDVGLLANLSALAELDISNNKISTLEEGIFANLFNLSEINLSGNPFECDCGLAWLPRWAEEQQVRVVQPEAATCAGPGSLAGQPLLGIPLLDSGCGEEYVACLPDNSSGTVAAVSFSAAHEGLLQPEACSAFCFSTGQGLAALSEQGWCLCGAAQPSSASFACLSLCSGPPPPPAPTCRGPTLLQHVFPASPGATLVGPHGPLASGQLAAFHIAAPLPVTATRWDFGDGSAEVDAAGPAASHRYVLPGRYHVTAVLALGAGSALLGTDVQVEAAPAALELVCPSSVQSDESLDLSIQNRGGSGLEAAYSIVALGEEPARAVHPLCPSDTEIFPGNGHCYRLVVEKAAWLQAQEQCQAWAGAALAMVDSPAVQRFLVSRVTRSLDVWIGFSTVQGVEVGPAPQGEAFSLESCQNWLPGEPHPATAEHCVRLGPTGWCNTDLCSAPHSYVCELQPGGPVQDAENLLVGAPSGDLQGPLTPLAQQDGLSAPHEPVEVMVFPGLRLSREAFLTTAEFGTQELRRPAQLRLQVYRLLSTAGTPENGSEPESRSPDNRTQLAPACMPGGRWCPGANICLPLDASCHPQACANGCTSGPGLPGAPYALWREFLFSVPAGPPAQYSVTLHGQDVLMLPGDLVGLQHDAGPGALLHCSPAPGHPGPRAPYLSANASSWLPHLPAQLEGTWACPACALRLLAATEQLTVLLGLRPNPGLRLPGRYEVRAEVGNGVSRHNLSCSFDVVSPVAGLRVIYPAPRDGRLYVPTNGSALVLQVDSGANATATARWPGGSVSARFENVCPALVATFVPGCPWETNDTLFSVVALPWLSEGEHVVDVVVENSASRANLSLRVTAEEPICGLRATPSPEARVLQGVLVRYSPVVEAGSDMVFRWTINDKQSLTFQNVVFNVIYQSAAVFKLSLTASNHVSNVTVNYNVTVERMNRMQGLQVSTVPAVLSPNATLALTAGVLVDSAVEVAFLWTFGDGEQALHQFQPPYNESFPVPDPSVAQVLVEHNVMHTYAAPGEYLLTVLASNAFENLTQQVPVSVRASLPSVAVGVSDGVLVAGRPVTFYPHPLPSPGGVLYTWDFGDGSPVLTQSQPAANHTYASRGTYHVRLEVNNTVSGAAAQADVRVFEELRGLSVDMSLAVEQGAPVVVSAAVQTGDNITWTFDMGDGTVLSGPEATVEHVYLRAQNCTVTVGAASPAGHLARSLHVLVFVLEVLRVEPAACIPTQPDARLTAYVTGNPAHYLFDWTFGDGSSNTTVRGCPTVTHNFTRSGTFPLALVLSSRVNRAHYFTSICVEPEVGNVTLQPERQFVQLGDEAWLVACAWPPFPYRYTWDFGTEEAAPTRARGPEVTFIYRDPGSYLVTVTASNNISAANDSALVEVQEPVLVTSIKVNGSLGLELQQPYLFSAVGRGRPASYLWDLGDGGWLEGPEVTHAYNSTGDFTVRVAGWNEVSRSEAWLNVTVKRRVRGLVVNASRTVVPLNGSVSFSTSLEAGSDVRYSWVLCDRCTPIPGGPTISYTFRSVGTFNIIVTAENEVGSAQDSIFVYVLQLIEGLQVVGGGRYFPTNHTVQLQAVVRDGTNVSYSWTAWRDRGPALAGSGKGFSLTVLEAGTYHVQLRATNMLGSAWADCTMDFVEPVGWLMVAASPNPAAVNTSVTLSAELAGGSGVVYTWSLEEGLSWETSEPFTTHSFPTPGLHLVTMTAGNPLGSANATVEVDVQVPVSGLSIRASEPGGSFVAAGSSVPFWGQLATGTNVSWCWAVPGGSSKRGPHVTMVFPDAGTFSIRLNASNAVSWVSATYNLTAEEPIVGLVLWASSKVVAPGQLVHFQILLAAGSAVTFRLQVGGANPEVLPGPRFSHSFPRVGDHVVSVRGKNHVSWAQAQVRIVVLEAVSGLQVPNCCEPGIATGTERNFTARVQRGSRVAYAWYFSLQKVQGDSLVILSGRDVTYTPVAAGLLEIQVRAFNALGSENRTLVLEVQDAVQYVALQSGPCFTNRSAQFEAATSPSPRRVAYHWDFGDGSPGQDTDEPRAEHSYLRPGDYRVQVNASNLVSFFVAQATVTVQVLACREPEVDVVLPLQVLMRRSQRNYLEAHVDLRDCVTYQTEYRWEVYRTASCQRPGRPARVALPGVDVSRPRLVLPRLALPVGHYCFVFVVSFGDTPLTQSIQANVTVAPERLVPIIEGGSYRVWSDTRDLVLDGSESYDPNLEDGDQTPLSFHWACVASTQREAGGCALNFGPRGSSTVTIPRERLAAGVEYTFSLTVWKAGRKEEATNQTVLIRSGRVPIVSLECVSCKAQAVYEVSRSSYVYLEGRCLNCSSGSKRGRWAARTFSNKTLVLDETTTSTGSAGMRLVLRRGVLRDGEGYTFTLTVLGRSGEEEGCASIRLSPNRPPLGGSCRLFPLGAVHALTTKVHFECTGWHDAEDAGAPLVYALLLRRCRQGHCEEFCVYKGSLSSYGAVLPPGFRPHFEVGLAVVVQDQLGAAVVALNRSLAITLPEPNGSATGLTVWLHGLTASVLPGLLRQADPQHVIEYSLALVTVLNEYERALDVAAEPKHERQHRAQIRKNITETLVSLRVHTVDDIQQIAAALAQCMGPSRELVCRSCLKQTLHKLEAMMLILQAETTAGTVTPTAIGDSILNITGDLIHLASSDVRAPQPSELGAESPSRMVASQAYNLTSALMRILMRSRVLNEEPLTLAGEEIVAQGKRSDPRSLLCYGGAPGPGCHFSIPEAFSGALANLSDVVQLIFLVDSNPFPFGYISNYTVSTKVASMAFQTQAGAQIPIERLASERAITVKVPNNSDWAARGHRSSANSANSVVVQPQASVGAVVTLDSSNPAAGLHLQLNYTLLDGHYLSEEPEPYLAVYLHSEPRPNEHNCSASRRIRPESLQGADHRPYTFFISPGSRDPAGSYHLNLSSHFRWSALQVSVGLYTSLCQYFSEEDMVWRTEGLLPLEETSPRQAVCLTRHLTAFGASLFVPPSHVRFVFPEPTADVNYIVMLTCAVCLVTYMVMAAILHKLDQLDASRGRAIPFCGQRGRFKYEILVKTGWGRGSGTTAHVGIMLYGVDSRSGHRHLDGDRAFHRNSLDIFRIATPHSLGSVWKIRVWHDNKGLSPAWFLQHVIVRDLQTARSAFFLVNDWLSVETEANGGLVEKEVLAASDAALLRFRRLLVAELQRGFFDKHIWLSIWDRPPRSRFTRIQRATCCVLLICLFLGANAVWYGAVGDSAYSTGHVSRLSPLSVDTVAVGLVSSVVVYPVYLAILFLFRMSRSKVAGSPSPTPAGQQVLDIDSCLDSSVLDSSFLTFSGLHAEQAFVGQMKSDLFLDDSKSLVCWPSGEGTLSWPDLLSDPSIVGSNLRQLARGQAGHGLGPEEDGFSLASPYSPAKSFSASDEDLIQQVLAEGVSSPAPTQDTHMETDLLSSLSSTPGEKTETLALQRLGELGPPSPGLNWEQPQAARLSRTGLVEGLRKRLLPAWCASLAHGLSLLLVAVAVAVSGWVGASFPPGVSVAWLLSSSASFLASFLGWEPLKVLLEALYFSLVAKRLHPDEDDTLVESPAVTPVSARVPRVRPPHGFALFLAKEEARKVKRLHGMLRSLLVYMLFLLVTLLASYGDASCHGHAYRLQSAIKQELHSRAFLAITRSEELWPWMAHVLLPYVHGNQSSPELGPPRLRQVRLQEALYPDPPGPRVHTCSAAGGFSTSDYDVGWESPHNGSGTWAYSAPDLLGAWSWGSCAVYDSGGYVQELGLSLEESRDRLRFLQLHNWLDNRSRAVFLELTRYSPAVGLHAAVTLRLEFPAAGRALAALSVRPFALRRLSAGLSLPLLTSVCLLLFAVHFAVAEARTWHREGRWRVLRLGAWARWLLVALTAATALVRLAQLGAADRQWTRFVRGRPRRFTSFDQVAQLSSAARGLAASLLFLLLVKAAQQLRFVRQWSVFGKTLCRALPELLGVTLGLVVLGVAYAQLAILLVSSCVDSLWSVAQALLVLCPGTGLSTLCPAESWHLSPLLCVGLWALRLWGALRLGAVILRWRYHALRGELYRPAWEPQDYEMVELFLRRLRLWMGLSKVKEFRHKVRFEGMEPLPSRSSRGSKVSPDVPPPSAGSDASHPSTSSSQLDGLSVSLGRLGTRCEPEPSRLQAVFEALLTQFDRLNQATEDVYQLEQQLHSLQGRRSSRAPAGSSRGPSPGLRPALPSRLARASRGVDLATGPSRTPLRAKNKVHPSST
row,effect of a mutation on the interaction,Variant
1,decreasing interaction strength,V880A;L881A;L885A
2,disrupting interaction strength,L881A;L885A
3,disrupting interaction strength,R877G;R878G
4,decreasing interaction strength,R883A;L884A
5,decreasing interaction strength,R877A;R878A
6,decreasing interaction strength,L881D;L885D

# More lines, now with the values behind:
row,Variant,effect of a mutation on the interaction
1,K876A;R877A,decreasing interaction strength
2,K876A;R877A;R878A;E879A,decreasing interaction strength
3,V865A;I869A,decreasing interaction strength
4,D861A;I864A;V865A,decreasing interaction strength
5,K876G;R877G;R878G;E879G,decreasing interaction strength

# Variants of: B1
# Conditions: with pkd1_mouse Pkd1, O08852
row,Variant,effect of a mutation on the interaction
1,V880A;L881A;L885A,decreasing interaction strength
2,L881A;L885A,decreasing interaction strength
